Results: article PMC11543927, “Subtleties in Clathrin heavy chain binding boxes provide selectivity among adaptor proteins of budding yeast” (Nature Communications, 2024)
Substitutions are numbered along the chain they refer to.

B1: Ent1 CBM peptide (GYTLIDL) (peptide)
peptide: GYTLIDL
notes: also called Ent1 peptide; source: synthetic peptide, bought: NovoProLabs
B2: Ent2 CBM peptide (GVSLIDL) (peptide)
peptide: GVSLIDL
notes: also called Ent2 peptide; source: synthetic peptide, bought: NovoProLabs

What was measured:
Details in all cases: both partners purified
[1] = biological target: T1, Saccharomyces cerevisiae clathrin heavy chain N-terminal domain (ScChc-NTD, 1-369) (Saccharomyces cerevisiae, UniProt P22137 1-369); assay: nanoDSF thermal shift; ScChc-NTD 8 µM incubated with eleven peptide concentrations (1:1 dilutions) for 15 min, heated 20-95 °C at 1 °C/min, SEC buffer (50 mM Tris pH 9, 150 mM NaCl, 0.5 mM TCEP); apparent KD from the Tm shift model, one to one binding assumed, global average over all boxes
T1 construct: Clathrin heavy chain N-terminal domain, Saccharomyces cerevisiae, residues 1-369; pETM-30 vector with a His-GST tag and a TEV cleavage site; also called WT NTD; source: E. coli BL21 (DE3), purified (Ni-NTA, TEV cleavage, reverse Ni-NTA, SEC)
T1 sequence (looked up): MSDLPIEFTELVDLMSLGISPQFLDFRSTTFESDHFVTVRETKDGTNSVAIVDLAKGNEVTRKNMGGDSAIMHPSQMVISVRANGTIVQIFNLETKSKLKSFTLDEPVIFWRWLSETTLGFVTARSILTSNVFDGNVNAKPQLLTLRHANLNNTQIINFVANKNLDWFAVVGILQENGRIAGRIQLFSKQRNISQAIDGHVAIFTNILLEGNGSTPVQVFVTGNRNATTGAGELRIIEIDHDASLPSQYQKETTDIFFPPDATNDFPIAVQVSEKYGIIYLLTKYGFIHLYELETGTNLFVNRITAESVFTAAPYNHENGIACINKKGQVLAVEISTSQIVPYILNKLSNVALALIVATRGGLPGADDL

[2] = biological target: T2, ScChc-NTD Clathrin box mutant (K63E, I87D, Q89A, K98E) (Saccharomyces cerevisiae, UniProt P22137 1-369, K63E | I87D | Q89A | K98E); assay: nanoDSF thermal shift; ScChc-NTD mutants 10 µM with Ent1 or Ent2 peptide, thermal ramp up to 80 °C; apparent KD from the Tm shift model
T2 construct: Clathrin heavy chain N-terminal domain, Saccharomyces cerevisiae, residues 1-369, Clathrin box mutant; also called Cla mutant
T2 sequence (looked up): T1 sequence (looked up) with K63E, I87D, Q89A, K98E

[3] = biological target: T3, ScChc-NTD Arrestin box mutant (Q195A, I197T, K251E) (Saccharomyces cerevisiae, UniProt P22137 1-369, Q195A | I197T | K251E); assay: as above
T3 construct: Clathrin heavy chain N-terminal domain, Saccharomyces cerevisiae, residues 1-369, Arrestin box mutant; also called Arr mutant
T3 sequence (looked up): T1 sequence (looked up) with Q195A, I197T, K251E

Binder	Kd [1]	Kd [2]	Kd [3]
B1	~138 µM	~968 µM	~166 µM
B2	~177 µM	~509 µM	~216 µM
